The text below walks through data of publication PMC11430099.

The data set relates to T1, CadX (single-chain homodimer, two identical CadX copies joined by GGGGSGGGGSGGGGS linker) (Streptococcus suis GZ0565), ORF:24397d24.
T1 sequence: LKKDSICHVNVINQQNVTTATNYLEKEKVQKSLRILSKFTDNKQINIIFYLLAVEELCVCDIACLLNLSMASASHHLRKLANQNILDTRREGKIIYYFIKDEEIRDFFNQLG
Put plainly: EMSA.

Regarding “TTTGGATGGCAGGGCTTTTTTATATTTGGTACACTAACTTCTTATCTATATTTTGGTGGAGCTGAAGTTGACATCTACAATGTTTAATGTTAGAATACATTCAAAAATATATTTGAATGAGGTCTTTT (double strand) [cadDX promoter fragment]”, the binding entry is “binds”.
